Test results published in patent publication US20240299449A1 (University of California, published 2024).
Blank lines part the entries; values can stand above or below the binder they belong to.

How the values were obtained:
[1] = biological target: T1, recombinant fusion protein comprised of the C-terminal extracellular domain of CD72 (aa 117-359) fused to a … (human, UniProt P21854 117-359, biotinylated (on the Fc domain; site not stated)); assay: on-yeast affinity measurement, flow cytometry, titration of CD72-Fc
T1 construct: range 117-359; Expressed in mammalian cells; CD72 is a type II protein, so the Fc may be N-terminal; also called CD72-Fc; CD72-ECD-Fc; not shown: human Fc domain
T1 sequence (looked up): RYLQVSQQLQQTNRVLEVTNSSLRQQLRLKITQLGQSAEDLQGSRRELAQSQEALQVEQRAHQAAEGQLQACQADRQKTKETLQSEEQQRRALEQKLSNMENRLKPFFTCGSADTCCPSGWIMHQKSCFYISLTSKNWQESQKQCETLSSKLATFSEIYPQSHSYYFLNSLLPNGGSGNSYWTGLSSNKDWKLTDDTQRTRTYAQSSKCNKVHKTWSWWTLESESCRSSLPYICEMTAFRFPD
From the text: FIG. 4a-e: Isolation of high-affinity CD72 nanobodies with yeast display (a) Schematic of workflow for in vitro anti-CD72 nanobody selection using yeast display. (b) Structure models of the recombinant Fc-fusion proteins used to perform yeast display selections. The Fc protein on the left was used to negatively select potential off-target nanobodies while the CD72-Fc protein (CD72 extracellular domain fused to a human Fc domain) was used to perform positive selection steps to isolate CD72-specific nanobodies (c) Schematic displaying the nanobody yeast display selection strategy for each MACS and FACS selection round to enrich for CD72-specific nanobody binders. Two rounds of MACS followed by four rounds of FACS with decreasing concentration of CD72 antigen produced high affinity anti-CD72 nanobodies. (d) On-yeast binding of recombinant CD72-Fc fusion protein for CD72-selected nanobodies Nb.B5 (nanobody sequence SEQ ID NO:2) and Nb.C2 (nanobody sequence SEQ ID NO:1) expressed on yeast to determine estimated binding affinities. Kd determined by curve fitting using non-linear least squares regression. (e) Flow cytometry plots of yeast clone Nb.C2 binding to 10 nM CD72-ECD-Fc protein (left) or 10 nM Fc protein (right). […]

[2] = biological target: T2, recombinant fusion protein comprised of the C-terminal extracellular domain of CD72 (aa 117-359) fused to a … (human, UniProt P21854 117-359, biotinylated (on the Fc domain; site not stated)); assay: on-yeast binding (yeast display titration)
T2 chain: T1 sequence (looked up)

binding result [1]: binds
Kd [2]: 1 nM
B1: Nb.B5 (VHH)
VHH: QVQLQESGGGLVQAGGSLRLSCAASGTIFPVDYMGWYRQAPGKERELVAGINYGSNTYYADSVKGRFTISRDNAKNTVYLQMNSLKPEDTAVYYCAAWQPEGYAVDFYHPYWGQGTQVTVSS

binding result [1]: binds
Kd [2]: 1.5 nM
B2: Nb.C2 (VHH)
VHH: QVQLQESGGGLVQAGGSLRLSCAASGTIFDWYSMGWYRQAPGKERELVAGIDTGANTYYADSVKGRFTISRDNAKNTVYLQMNSLKPEDTAVYYCAAHDDGDPWHVYWGQGTQVTVSS
notes: display was detected with anti-HA-FITC; also called yeast clone Nb.C2
